Results: publication PMC9482650, “Quantitative fragmentomics allow affinity mapping of interactomes” (Nature Communications, 2022)

Experiments:
Experiment in all cases: holdup assay
Design in all cases: key: below the threshold = too weak to quantify, mostly under pKd 3.1 to 4
Settings in all cases: plain residues with an end cap or a label only (N-terminal biotin on a linker: (peg)3)
APBA1_1, Q02410 = molecular target: T1, APBA1_1, Q02410
T1 sequence (Q02410 651-752, limits assumed, looked up): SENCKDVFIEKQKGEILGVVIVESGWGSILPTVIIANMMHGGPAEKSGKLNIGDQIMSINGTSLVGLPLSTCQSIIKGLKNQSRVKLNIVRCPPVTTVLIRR

APBA3_2, O96018 = molecular target: T2, APBA3_2, O96018
T2 sequence (O96018 480-570, limits assumed, looked up): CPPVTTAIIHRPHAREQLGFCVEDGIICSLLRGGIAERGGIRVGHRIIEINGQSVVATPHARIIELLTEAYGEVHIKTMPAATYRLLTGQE

DLG1_2, Q12959 = molecular target: DLG1_2, Q12959
Sequence of DLG1_2, Q12959 (Q12959 314-412): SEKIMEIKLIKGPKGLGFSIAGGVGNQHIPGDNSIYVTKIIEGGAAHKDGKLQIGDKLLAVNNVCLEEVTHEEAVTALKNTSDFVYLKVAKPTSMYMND

INTU, Q9ULD6 = molecular target: T3, INTU, Q9ULD6
T3 sequence (Q9ULD6 180-273, limits assumed, looked up): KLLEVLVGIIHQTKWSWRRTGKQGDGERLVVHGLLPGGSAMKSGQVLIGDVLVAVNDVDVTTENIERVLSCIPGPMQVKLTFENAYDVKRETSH

MAGI1_3, Q96QZ7 = molecular target: MAGI1_3, Q96QZ7
Sequence of MAGI1_3, Q96QZ7 (Q96QZ7 638-725): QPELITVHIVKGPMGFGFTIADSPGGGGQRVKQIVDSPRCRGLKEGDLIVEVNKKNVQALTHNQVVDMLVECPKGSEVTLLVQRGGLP

MAGI3_6, Q5TCQ9 = molecular target: MAGI3_6, Q5TCQ9
Sequence of MAGI3_6, Q5TCQ9 (Q5TCQ9 1014-1103): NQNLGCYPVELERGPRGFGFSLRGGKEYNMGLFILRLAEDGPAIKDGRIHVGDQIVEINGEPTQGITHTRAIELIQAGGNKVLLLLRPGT

MPDZ_13, O75970 = molecular target: T4, MPDZ_13, O75970
T4 sequence (O75970 1982-2070, limits assumed, looked up): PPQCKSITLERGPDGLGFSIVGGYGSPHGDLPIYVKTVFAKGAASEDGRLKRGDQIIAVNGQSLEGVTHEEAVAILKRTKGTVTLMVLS

PARD3B_3, Q8TEW8 = molecular target: PARD3B_3, Q8TEW8
Sequence of PARD3B_3, Q8TEW8 (Q8TEW8 490-594): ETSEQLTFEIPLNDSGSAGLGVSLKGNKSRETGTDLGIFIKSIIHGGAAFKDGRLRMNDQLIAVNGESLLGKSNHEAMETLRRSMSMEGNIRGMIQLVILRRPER

PDZD2_5, O15018 = molecular target: T5, PDZD2_5, O15018
T5 sequence (O15018 2617-2716, limits assumed, looked up): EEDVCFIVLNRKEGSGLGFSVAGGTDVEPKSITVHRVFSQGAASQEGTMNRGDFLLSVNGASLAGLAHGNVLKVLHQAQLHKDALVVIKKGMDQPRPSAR

PDZD2_6, O15018 = molecular target: T6, PDZD2_6, O15018
T6 sequence (O15018 2745-2839, limits assumed, looked up): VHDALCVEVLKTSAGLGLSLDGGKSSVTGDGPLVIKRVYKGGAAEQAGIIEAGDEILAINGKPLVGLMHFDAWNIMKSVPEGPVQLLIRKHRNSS

PDZD7_2, Q9H5P4 = molecular target: T7, PDZD7_2, Q9H5P4
T7 sequence (Q9H5P4 205-303, limits assumed, looked up): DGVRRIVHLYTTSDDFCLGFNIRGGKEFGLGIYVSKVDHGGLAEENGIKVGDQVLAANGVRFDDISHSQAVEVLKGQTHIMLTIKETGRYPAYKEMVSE

PDZD8, Q8NEN9 = molecular target: T8, PDZD8, Q8NEN9
T8 sequence (Q8NEN9 361-459, limits assumed, looked up): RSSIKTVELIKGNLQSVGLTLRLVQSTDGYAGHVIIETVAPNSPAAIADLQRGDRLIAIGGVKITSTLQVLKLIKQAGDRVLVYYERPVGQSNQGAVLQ

RIMS2, Q9UQ26 = molecular target: RIMS2, Q9UQ26
Sequence of RIMS2, Q9UQ26 (Q9UQ26 637-758): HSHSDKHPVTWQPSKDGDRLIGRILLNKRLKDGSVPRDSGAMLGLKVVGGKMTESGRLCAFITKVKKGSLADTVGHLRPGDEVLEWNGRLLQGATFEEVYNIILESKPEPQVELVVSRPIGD

SCRIB_1, Q14160 = molecular target: SCRIB_1, Q14160
Sequence of SCRIB_1, Q14160 (Q14160 718-814): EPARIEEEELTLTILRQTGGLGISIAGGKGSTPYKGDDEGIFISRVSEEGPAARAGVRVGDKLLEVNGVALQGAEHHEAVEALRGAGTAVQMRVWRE

SCRIB_4, Q14160 = molecular target: SCRIB_4, Q14160
Sequence of SCRIB_4, Q14160 (Q14160 1095-1204): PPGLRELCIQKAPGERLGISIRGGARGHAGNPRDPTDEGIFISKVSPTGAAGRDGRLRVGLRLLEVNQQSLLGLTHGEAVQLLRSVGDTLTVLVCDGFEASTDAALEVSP

SHANK2, Q9UPX8 = molecular target: T9, SHANK2, Q9UPX8
T9 sequence (Q9UPX8 621-730, limits assumed, looked up): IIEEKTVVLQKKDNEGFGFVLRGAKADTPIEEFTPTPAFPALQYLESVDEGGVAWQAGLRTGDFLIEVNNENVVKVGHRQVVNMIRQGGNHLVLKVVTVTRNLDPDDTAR

SHANK3, Q9BYB0 = molecular target: T10, SHANK3, Q9BYB0
T10 sequence (Q9BYB0 641-750, limits assumed, looked up): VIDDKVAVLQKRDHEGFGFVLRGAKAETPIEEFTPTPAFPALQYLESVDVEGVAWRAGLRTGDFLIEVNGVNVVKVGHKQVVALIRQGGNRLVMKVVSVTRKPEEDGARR

SIPA1L3, O60292 = molecular target: T11, SIPA1L3, O60292
T11 sequence (O60292 961-1052, limits assumed, looked up): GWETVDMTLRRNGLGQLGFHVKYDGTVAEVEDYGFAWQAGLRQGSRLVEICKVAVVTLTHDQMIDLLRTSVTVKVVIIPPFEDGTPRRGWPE

SNTB2, Q13425 = molecular target: T12, SNTB2, Q13425
T12 sequence (Q13425 110-208, limits assumed, looked up): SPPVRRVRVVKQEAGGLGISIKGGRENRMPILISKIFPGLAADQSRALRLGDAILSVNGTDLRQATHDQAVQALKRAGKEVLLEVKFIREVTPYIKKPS

SYNPO2L, Q9H987 = molecular target: T13, SYNPO2L, Q9H987
T13 sequence (Q9H987 1-98, limits assumed, looked up): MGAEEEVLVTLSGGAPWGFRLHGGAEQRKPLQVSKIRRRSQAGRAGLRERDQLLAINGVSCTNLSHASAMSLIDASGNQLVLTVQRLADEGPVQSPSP

TJP3_2, O95049 = molecular target: T14, TJP3_2, O95049
T14 sequence (O95049 190-282, limits assumed, looked up): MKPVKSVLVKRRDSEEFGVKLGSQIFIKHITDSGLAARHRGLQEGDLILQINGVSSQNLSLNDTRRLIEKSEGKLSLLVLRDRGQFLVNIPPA

USH1C_3, Q9Y6N9 = molecular target: T15, USH1C_3, Q9Y6N9
T15 sequence (Q9Y6N9 447-547, limits assumed, looked up): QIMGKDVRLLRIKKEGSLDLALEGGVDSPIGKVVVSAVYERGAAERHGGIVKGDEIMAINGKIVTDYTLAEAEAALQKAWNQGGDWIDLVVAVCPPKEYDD

| Binder | pKd (APBA1_1, Q02410) | pKd (APBA3_2, O96018) | pKd (DLG1_2, Q12959) | pKd (INTU, Q9ULD6) | pKd (MAGI1_3, Q96QZ7) | pKd (MAGI3_6, Q5TCQ9) | pKd (MPDZ_13, O75970) | pKd (PARD3B_3, Q8TEW8) | pKd (PDZD2_6, O15018) | pKd (PDZD7_2, Q9H5P4) | pKd (PDZD8, Q8NEN9) | pKd (RIMS2, Q9UQ26) | pKd (SCRIB_1, Q14160) | pKd (SCRIB_4, Q14160) | pKd (SHANK2, Q9UPX8) | pKd (SHANK3, Q9BYB0) | pKd (SIPA1L3, O60292) | pKd (SNTB2, Q13425) | pKd (SYNPO2L, Q9H987) | pKd (TJP3_2, O95049) | also measured |
| --- | --- | --- | --- | --- | --- | --- | --- | --- | --- | --- | --- | --- | --- | --- | --- | --- | --- | --- | --- | --- | --- |
| QQSMSSADSTQA [SARS-Cov2-N, P0DTC9] | below the threshold | below the threshold | below the threshold | below the threshold | below the threshold | below the threshold | below the threshold | below the threshold | below the threshold | below the threshold | below the threshold | below the threshold | below the threshold | below the threshold | below the threshold | below the threshold | below the threshold | below the threshold | below the threshold | below the threshold | pKd (PDZD2_5, O15018): below the threshold; pKd (USH1C_3, Q9Y6N9): below the threshold |
| RYEDTTLVEDTVL [WNV-NS5, Q9Q6P4] | below the threshold | below the threshold | 3.77 | below the threshold | below the threshold | below the threshold | below the threshold | 4.05 | below the threshold | below the threshold | below the threshold | below the threshold | 3.95 | below the threshold | 4.59 | 4.59 | below the threshold | below the threshold | below the threshold | 4.25 | pKd (PDZD2_5, O15018): below the threshold; pKd (USH1C_3, Q9Y6N9): below the threshold |
| RRRRSQSRESQC [HBV-HBc, P03193] | below the threshold | below the threshold | 4.58 | below the threshold | below the threshold | below the threshold | below the threshold | below the threshold | below the threshold | below the threshold | below the threshold | below the threshold | 4.48 | below the threshold | below the threshold | below the threshold | 3.96 | 4.58 | below the threshold | below the threshold | pKd (USH1C_3, Q9Y6N9): below the threshold |
